Target: trimerized sTNFRII-gAD fusion protein (UniProt P20333)
Assay: AUC; ultracentrifuge analysis of the purified trimerized sTNFRII-gAD

- stoichiometry N: 3
Substance: trimerized sTNFRII-gAD fusion protein (from UniProt P20333 23-257)

Reference: article PMC4207793
